The text below walks through data of patent US20220282217A1 (BIONTECH US, published 2022).

Assay [1] has as its target T1, HLA class I molecule A02.01.
T1 construct: Purified MHC class I complex; also called HLA-A02:01
As to the kind of experiment: competition with radiolabeled reference peptide on purified MHC I. Here is the method:
(§1) Peptides were incubated at varying concentrations with these complexes for 2 days, and the amount of remaining radiolabeled peptide bound to […] was measured using size exclusion gel-filtration.

Assay [2] addresses T2, HLA class I molecule B08.01.
T2 construct: Purified MHC class I complex; also called HLA-B08:01
Described as above. As to the method: as §1

Assay [3] concerns the target T1, HLA class I molecule A02.01. The assay can be described thus: pMHC-I dissociation half-life, 125I-b2m. Summed up: (§2)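 Biotinylated MHC-I heavy chain made in E. coli, captured on streptavidin plates and complexed with peptide and radiolabelled light chain. Dissociation started with excess unlabelled light chain at 37 °C. Stability is the half-life in hours from scintillation counts.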

Assay [4] deals with T2, HLA class I molecule B08.01. As to the kind of experiment: pMHC-I dissociation half-life, 125I-b2m. Summed up: as §2
The target in assay [5] is T3, HLA-B07.02 (human).
T3 construct: Purified class I MHC
As to the kind of experiment: competition with radiolabeled reference peptide, purified MHC I. Here is the method: as §1

In assay [6] the target is T4, HLA-A03.01 (human).
T4 construct: Purified class I MHC
The assay is described as above. Here is the method:
as §1

For assay [7], the target named is T5, HLA-B08.01 (human).
T5 construct: Purified class I MHC
The description is as above. As to the method:
as §1

Assay [8] has as its target T3, HLA-B07.02. As to the kind of experiment: pMHC-I dissociation half-life, 125I-b2m. The procedure, abridged:
as §2

Assay [9] has as its target T4, HLA-A03.01. As to the kind of experiment: pMHC-I dissociation half-life, 125I-b2m. The procedure, abridged: as §2
For assay [10], the target named is T6, HLA-A02.01 (human).
T6 construct: Purified class I MHC
As to the kind of experiment: pMHC-I dissociation half-life, 125I-b2m. Summed up: as §2

In assay [11] the target is T5, HLA-B08.01. As to the kind of experiment: pMHC-I dissociation half-life, 125I-b2m. Summed up:
as §2

Assay [12] addresses T7, HLA-A01:01 class I MHC molecule (human).
T7 construct: heavy chain biotinylated and made in E. coli in the stability assay
As to the kind of experiment: pMHC-I dissociation at 37 C, 125I-labeled b2m, scintillation counts. As to the method: (§3) Briefly, synthetic genes encoding biotinylated MHC-I heavy and light chains are expressed in E. coli and purified from inclusion bodies using standard methods. […] These reactions are carried out in streptavidin coated microplates to bind the biotinylated MHC-I heavy chains to the surface and allow measurement of radiolabeled light chain to monitor complex formation. Dissociation is initiated by addition of higher concentrations of unlabeled light-chain and incubation at 37° C. Stability is defined as the length of time in hours it takes for half of the complexes to dissociate, as measured by scintillation counts.

Assay [13] concerns the target HLA-A03:01 class I MHC molecule (human). Described as above. Here is the method:
as §3

The target of assay [14] is HLA-A11:01 class I MHC molecule (human). As to the kind of experiment: competition with a radiolabeled reference peptide for purified MHC I, gel filtration; 'Affinity (nM)'; affinity assay, column 'Affinity (nM)'. Here is the method:
as §1
For orientation: In gel filtration, larger molecules generally elute earlier.

The target of assay [15] is HLA-A03:01 class I MHC molecule (human). As to the kind of experiment: competition with a radiolabeled reference peptide for purified MHC I, gel filtration; 'Affinity (nM)'. As to the method: as §1
For assay [16], the target named is HLA-A02.01 (human). The assay can be described thus: competition vs radiolabeled reference peptide on purified MHC I, gel filtration. Here is the method: as §1
The target in assay [17] is T8, HLA-A03.01 (human).
T8 construct: As for HLA-A02.01
Described as above. Here is the method:
as §1

In assay [18] the target is HLA-A02.01 (human). The assay can be described thus: pMHC-I complex dissociation at 37 C, 125I-b2m, half-life. The procedure, abridged:
as §2

Assay [19] concerns the target T8, HLA-A03.01. Described as above. Summed up: as §2
In assay [20] the target is T1, HLA class I molecule A02.01. As to the kind of experiment: competition binding assay with purified class I MHC: test peptide at varying concentrations displaces a radiolabeled reference peptide, read by size exclusion gel filtration; column 'Observed MHC Affinity (nM)'. Here is the method: as §1
The target of assay [21] is HLA-B08:01 class I MHC molecule (human). The assay can be described thus: pMHC-I dissociation at 37 C, 125I-labeled b2m, scintillation counts. Here is the method: as §3
The target is the same in assay [22]. The assay can be described thus: competition with a radiolabeled reference peptide for purified MHC I, gel filtration; 'Affinity (nM)'. Here is the method: as §1
The next assay deals with T9, HLA-A01.01 (human).
T9 construct: Purified class I MHC
As to the kind of experiment: competition with radiolabeled reference peptide, purified MHC I. Here is the method: as §1

The target in assay [23] is HLA-A24:02 class I MHC molecule (human). As to the kind of experiment: pMHC-I dissociation at 37 C, 125I-labeled b2m, scintillation counts. Here is the method:
as §3

Assay [24] shares this target. The assay can be described thus: competition with a radiolabeled reference peptide for purified MHC I, gel filtration; 'Affinity (nM)'. As to the method:
as §1

The next assay has as its target HLA-B*40:02 (human). The assay can be described thus: peptides eluted from HLA-peptide complexes by acid wash, targeted MS/MS (PRM); 293T cells transduced with GATA3 neoORF, expressing HLA-B*40:02. As to the method:
Between 50 and 700 million of the transduced cells expressing peptides encoded by the GATA3 neoORF sequence were cultured and peptides were eluted from HLA-peptide complexes using an acid wash. Eluted peptides were then analyzed by targeted MS/MS using PRM.

The target of assay [25] is T10, HLA class I molecule A24.02.
T10 construct: Purified MHC class I complex; also called HLA-A24:02
As to the kind of experiment: competition with radiolabeled reference peptide on purified MHC I. As to the method:
as §1

The target in assay [26] is T11, HLA class I molecule B07.02.
T11 construct: Purified MHC class I complex; also called HLA-B07:02
Described as above. As to the method:
as §1

Assay [27] addresses T10, HLA class I molecule A24.02. The assay can be described thus: pMHC-I dissociation half-life, 125I-b2m. Summed up: as §2
The target of assay [28] is T11, HLA class I molecule B07.02. As to the kind of experiment: pMHC-I dissociation half-life, 125I-b2m. The procedure, abridged:
as §2

Assay [29] concerns the target T6, HLA-A02.01. The assay can be described thus: competition with radiolabeled reference peptide, purified MHC I. As to the method: as §1
Assay [30] concerns the target T12, HLA-A24.02 (human).
T12 construct: Purified class I MHC
Described as above. Here is the method: as §1

In assay [31] the target is T12, HLA-A24.02. The assay can be described thus: pMHC-I dissociation half-life, 125I-b2m. The procedure, abridged: as §2
Assay [32] has as its target T13, HLA-B07.02 (human).
T13 construct: As for HLA-A02.01
The assay can be described thus: competition vs radiolabeled reference peptide on purified MHC I, gel filtration. As to the method:
as §1

The target in assay [33] is T13, HLA-B07.02. As to the kind of experiment: pMHC-I complex dissociation at 37 C, 125I-b2m, half-life. Summed up: as §2
Assay [34] deals with T14, HLA class I molecule A03.01.
T14 construct: Purified MHC class I complex; also called HLA-A03:01
As to the kind of experiment: competition with radiolabeled reference peptide on purified MHC I. As to the method:
as §1

In assay [35] the target is T15, HLA-A11.01 (human).
T15 construct: Purified class I MHC
As to the kind of experiment: competition binding assay with purified class I MHC: test peptide at varying concentrations displaces a radiolabeled reference peptide, read by size exclusion gel filtration; column 'Observed MHC Affinity (nM)'. As to the method:
as §1

Assay [36] addresses T15, HLA-A11.01. The assay can be described thus: pMHC-I dissociation assay with 125I-labeled beta2m light chain at 37 C, scintillation counts; time in hours for half of the complexes to dissociate. Here is the method: as §3
For assay [37], the target named is T14, HLA class I molecule A03.01. The assay is described as above. Here is the method:
as §3

Assay [38] has as its target T7, HLA-A01:01 class I MHC molecule. The assay can be described thus: competition with a radiolabeled reference peptide for purified MHC I, gel filtration; 'Affinity (nM)'. Here is the method:
as §1

Assay [39] deals with T14, HLA class I molecule A03.01. As to the kind of experiment: pMHC-I dissociation half-life, 125I-b2m. Summed up: as §2

As to YQQQQQSDL (also called MYC, E39D), the IC50 (as a rule, the concentration that gives 50% inhibition) was determined as 799 nM in assay [1] and 18.9 µM in assay [2]. In addition, the “Stability (T1/2 (h))” value in assay [3] was determined as 0.4 h; in assay [4], 0 h.

In the case of KLMLLRLNL (also called SEC31A(-1)), the IC50 was determined as 133 nM in the assay with HLA-B07.02 [5], 210 nM in the assay with HLA-A03.01 [6] and 58.4 nM with HLA-B08.01 [7]. Further, the “Stability (T1/2 (h))” value worked out at 1.5 h in the assay with HLA-B07.02 [8], 0 h with HLA-A03.01 [9], 16.9 h with HLA-A02.01 [10] and 0 h with HLA-B08.01 [11].

In the case of MANGSLLNY [BTK, C481S peptide MANGSLLNY], the “Stability (half-life (hr.))” value in [12] came out at 13 min; in [13], 14.3 min. In addition, the IC50 was 536 nM in assay [14] and 35.6 nM in [15].

As to KLFSCLSFL (also called C15ORF40(+1)), the IC50 with HLA-A02.01 [16] is 6 nM; with HLA-A03.01 [17], 308 nM. The results for the “Stability (T1/2 (h))” value in the assay with HLA-A02.01 [18] and with HLA-A03.01 [19] were 14.3 h and 0.8 h, respectively.

As to SMLTGPPARV (also called GATA3 . . ; CSNH), the IC50 in assay [20] is 14 nM. Further, the “Stability (T1/2 (h))” value in assay [3] came out at 21.7 h.

Take SLLNYLREM [BTK_C481S peptide SLLNYLREM]: the “Stability (half-life (hr.))” value in [21] worked out at 0 h. Besides, in assay [22], the IC50 worked out at 960 nM.

MSDTTYKIY (also called TTK(-1)): in the assay with HLA-A01.01, the IC50 stood at 10.2 nM.

For EYMANGSLL [BTK, C481S peptide EYMANGSLL], in assay [23], the “Stability (half-life (hr.))” value was 5.72 h. This molecule showed an IC50 in assay [24] of 4.96 nM.

As for AESKIMFATL [GATA3 neoORF peptide AESKIMFATL], in the assay with HLA-B*40:02, the binding result was “binds”.

In the assay with HLA-A01.01, VMSDTTYKIY (also called TTK(-1)) came in with an IC50 of 376 nM.

Turning to ALSASNSCF (also called FRG1B, L52S), the IC50 in [1] came out at 728 nM; in assay [25], 16.3 µM; in assay [26], 684 nM. In addition, the “Stability (T1/2 (h))” value in assay [3] is 0.3 h; in assay [27] it was 0.2 h; in assay [28], 0 h.

Regarding MANGSLLNYL [BTK_C481S peptide MANGSLLNYL], the “Stability (half-life (hr.))” value in assay [21] is 0 h.

With AESKIMFAT [GATA3 neoORF peptide AESKIMFAT], the binding result in the assay with HLA-B*40:02 is recorded as “binds”.

Take MNWRPILTII (also called TP53, R248W): the IC50 with HLA-A02.01 [29] is 1030 nM; in the assay with HLA-A24.02 [30], 44.9 µM. In addition, the “Stability (T1/2 (h))” value with HLA-A02.01 [10] is 0.4 h; with HLA-A24.02 [31] it was 0 h.

B1: KLSDSRTAL (peptide)
peptide: KLSDSRTAL
notes: also called FRG1B, I1OT (so in the source); FRG1B, I10T
B1: the concentration for half-maximal inhibition (IC50) with HLA-B07.02 [32] is 9 nM. For the same molecule, the “Stability (T1/2 (h))” value was determined as 2.8 h with HLA-A02.01 [18] and 6.8 h in the assay with HLA-B07.02 [33].

With KIMFATLQR (also called GATA3 . . ; CSNH), the IC50 in assay [34] is 2.5 nM; in the assay with HLA-A11.01 [35] it was 23 nM. Moreover, the “Observed MHC Stability” value is 8.9 h with HLA-A11.01 [36] and 5.6 h in assay [37].

KLRSPLWIF (also called SMAP1(-1)) gave an IC50 with HLA-A24.02 [30] of 0.828 µM.

YMANGSLLNY [BTK, C481S peptide YMANGSLLNY]: the results for the “Stability (half-life (hr.))” value in assay [12] and in [13] were 52 min and 16.7 min, respectively. Besides, the IC50 in [14] is 974 nM; in [38] it was 13.2 nM; in [15] it was 95.9 nM.

With KVSRENTSPK (also called HER2, L7555), in assay [34], the IC50 was 7 nM. Further, the “Stability (T1/2 (h))” value in [39] worked out at 13.5 h.

With FQMQPLSLM (also called JAK1(-1)), the values for the IC50 in assay [1] and in [25] were 553 nM and 14.6 µM, respectively. In addition, the “Stability (T1/2 (h))” value in assay [3] worked out at 0.3 h; in assay [4], 0 h; in assay [27], 0 h; in assay [28] it was 0 h.
